± gives the uncertainty stated by the source.
Experiment: protein stability index of a GFP-peptide fusion (yeast GPS) (PSI 1-4); higher = more stable; sorted into four equal gates, so the index is relative within each strain
Outline: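 Tiled yeast protein peptides of 17 residues were each joined downstream of GFP, on plasmids that also express Cherry. The pooled library was maintained in yeast, and mid-log cultures in leucine-free medium were sorted into four equal gates on the GFP/Cherry ratio. Plasmids from every gate were amplified by PCR and sequenced on Illumina, with barcodes linking reads to strains. The protein stability index of a peptide is its gate-number-weighted read frequency summed over the gates.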

Row | Sequence | protein stability index (doa10∆) | protein stability index (pdr5∆) | protein stability index (san1∆) | protein stability index (ubr1∆)
1 | TDRITRLFIKPGQKMSL [BRN1] | 3.22 ± 0.11 | 2.9 ± 0.11 | 2.97 ± 0.14 | 3.17 ± 0.1
2 | GFGRKGKAKGDIPGVRF [RPS23A] | 3.19 ± 0.14 | 3.23 ± 0.13 | 3.42 ± 0.052 | 3.22 ± 0.094
3 | FRNPTPLLSNYASKINR [RGR1] | 1.44 ± 0.058 | 1.6 ± 0.045 | 1.34 ± 0.11 | 1.66 ± 0.048
4 | QNPENLLSEKILQYFEK [SIR3] | 2.83 ± 0.079 | 2.81 ± 0.086 | 2.8 ± 0.054 | 3.2 ± 0.072
5 | ESKLIPQENDLESKMSE [SMC3] | 2.81 ± 0.065 | 3.05 ± 0.065 | 3.15 ± 0.059 | 3.01 ± 0.054
6 | MNEMCKKINAKEKLIGW [RPN8] | 2.86 ± 0.043 | 3.13 ± 0.056 | 3.03 ± 0.046 | 3.08 ± 0.031
7 | EHNPSAHTASVGVVFGS [COR1] | 3.21 ± 0.16 | 3.24 ± 0.13 | 2.88 ± 0.14 | 2.22 ± 0.27
8 | KNMFEKKASKVTVDADI [ISW2] | 2.44 ± 0.063 | 2.87 ± 0.059 | 2.83 ± 0.055 | 2.77 ± 0.054
9 | VTKWTNQLTESASHFEQ [YJL041W/NSP1] | 2.85 ± 0.13 | 3.19 ± 0.099 | 3.16 ± 0.091 | 2.83 ± 0.098
10 | NETIIDNFSPHQNVIIG [SMC3] | – | 2.56 ± 0.17 | 2.29 ± 0.13 | –
11 | TAVKQGVTSLGIKATNG [PRE8] | 2.41 ± 0.065 | 2.06 ± 0.055 | 1.87 ± 0.072 | 1.71 ± 0.083
12 | LAIADSPQKFETNLQTF [ECM29] | 2.96 ± 0.11 | 3.3 ± 0.098 | 3.25 ± 0.048 | 2.79 ± 0.091
13 | FRGIIRSQDVRSTDRDR [CSL4] | – | – | – | 2.9 ± 0.2
14 | ALNSMCASIPIAIIKDT [RRP46] | 1.48 ± 0.12 | 1.67 ± 0.08 | 1.8 ± 0.097 | 1.79 ± 0.073
15 | IIRHEKELEPWDLQLQE [SMC4] | 3.28 ± 0.15 | 2.82 ± 0.13 | – | 3.47 ± 0.16
16 | GIVDELAYAVLGIALIA [RPN1] | 1.76 ± 0.1 | 1.42 ± 0.1 | 1.48 ± 0.16 | 1.17 ± 0.062
17 | VMSIESLVEVVFYRGMT [FAS1] | 1.89 ± 0.1 | 2.12 ± 0.06 | 1.39 ± 0.12 | 2.66 ± 0.097
18 | AESMCQELELPGEFVTA [SNF5] | 2.4 ± 0.061 | 2.53 ± 0.057 | 2.62 ± 0.048 | 2.46 ± 0.081
19 | FEIDDEHRIRVFFDKRI [RPS6A] | 1.88 ± 0.089 | 3.02 ± 0.12 | 2.17 ± 0.13 | 2.94 ± 0.16
20 | MAPVKSQESINQKLALV [RPL30] | 2.05 ± 0.11 | 2.53 ± 0.14 | 2.18 ± 0.13 | 2.25 ± 0.061
21 | EDGTSASFQIVEEDHTL [RPC19] | 3.02 ± 0.16 | 3.69 ± 0.17 | 3.4 ± 0.12 | 3.25 ± 0.13
22 | FADKKRDCIDISIFSTP [PRP8] | 3.2 ± 0.076 | 2.99 ± 0.072 | 2.87 ± 0.055 | 3.24 ± 0.068
23 | GTHNMYKEIRDVSRVAA [RPL20A] | 1.96 ± 0.089 | 2.22 ± 0.14 | 2.03 ± 0.1 | 2.29 ± 0.083
24 | RAKALGIKVTNPKGRLA [RPL32] | 3.62 ± 0.3 | 3.33 ± 0.18 | 2.87 ± 0.23 | 3.39 ± 0.27
25 | HHYNPKTKKLNLSAFKI [BRR2] | 2.21 ± 0.062 | 2.4 ± 0.05 | 2.4 ± 0.055 | 2.4 ± 0.042
26 | KQVQDFEENDHPNRVLE [COR1] | 3.1 ± 0.074 | 3.29 ± 0.1 | 3.19 ± 0.056 | 2.9 ± 0.065

Row | Sequence | protein stability index (doa10∆) | protein stability index (pdr5∆) | protein stability index (san1∆) | protein stability index (ubr1∆)
27 | RDLSEASVYPEYALPKT [RPS26A] | 3.11 ± 0.078 | 3.01 ± 0.067 | 3.16 ± 0.045 | 3.09 ± 0.034
28 | DLSYIEFLFESLKNDLP [ECM29] | 2.84 ± 0.13 | 2.65 ± 0.14 | 2.78 ± 0.083 | 3.13 ± 0.12
29 | PDGVVVHRDDPALVGKL [SNF6] | 3.3 ± 0.071 | 3.49 ± 0.071 | 3.36 ± 0.054 | 3.33 ± 0.053
30 | TGSNDRCIGDSDNVSFE [YMR129W/POM152] | 3.19 ± 0.066 | 2.73 ± 0.068 | 2.5 ± 0.077 | 3.09 ± 0.048
31 | FPTTSHESLVTTLLRKK [MED8] | 2.12 ± 0.12 | 1.82 ± 0.12 | 1.72 ± 0.14 | 1.95 ± 0.12
32 | VYLTAVLEYLAAEILEL [HTA1] | 2.47 ± 0.12 | 2.43 ± 0.1 | 2.21 ± 0.09 | 2.61 ± 0.075
33 | SNMFDNSADVDMDAQGR [YGL100W/SEH1] | 3.42 ± 0.085 | 3.55 ± 0.076 | 3.5 ± 0.057 | 3.29 ± 0.062
34 | NLLLSASRDKTLISWKL [ASC1] | 2.59 ± 0.071 | 2.79 ± 0.06 | 3.21 ± 0.05 | 2.2 ± 0.069
35 | NAGTNDNSFNELTDNMS [MCD1] | 3.01 ± 0.082 | 3.13 ± 0.076 | 3.15 ± 0.042 | 3.3 ± 0.05
36 | ELDILNKGWKLQSLNES [SRB4] | – | 3.05 ± 0.21 | 3 ± 0.18 | –
37 | FLPRKRAASIRARVKAF [RPL3] | 1.16 ± 0.045 | 1.18 ± 0.064 | 1.15 ± 0.11 | 1.17 ± 0.051
38 | QTLLQRSEDPAGLGKTN [YGR119C/NUP57] | 3.31 ± 0.084 | 3.12 ± 0.11 | 3.27 ± 0.078 | 3.39 ± 0.091
39 | QQQQTSPPPQTHQSPPP [SNF5] | 2.883 ± 0.018 | 2.878 ± 0.016 | 2.88 ± 0.016 | 2.901 ± 0.014
40 | VVSCSQHGFEVQVGPMK [RPB7] | 3.09 ± 0.12 | 3.15 ± 0.098 | 3.02 ± 0.089 | 3.23 ± 0.12
41 | GKKVLNKNQLLKRNRIR [POP1] | 2.88 ± 0.068 | 3.08 ± 0.055 | 2.94 ± 0.064 | 3.05 ± 0.053
42 | IELSDGSTFKVNQEFIF [YJL039C/NUP192] | 3.23 ± 0.088 | 3.07 ± 0.059 | 2.78 ± 0.061 | 3.13 ± 0.064
43 | EQQWITRAQYLAFAKLV [SRP68] | 1.63 ± 0.06 | 1.51 ± 0.051 | 1.33 ± 0.086 | 1.5 ± 0.051
44 | ERKQIHEFKLIVGKKIQ [GRR1] | 2.82 ± 0.045 | 2.58 ± 0.065 | 3.03 ± 0.06 | 3.13 ± 0.058
45 | FLKKVMDTIQDKLINDV [ECM29] | 3.08 ± 0.16 | 3.58 ± 0.2 | 2.95 ± 0.2 | 3.34 ± 0.15
46 | EEQLDALECRLASAIAS [CSN12] | – | 2.02 ± 0.15 | 2.38 ± 0.12 | 1.81 ± 0.088
47 | GNSEAIPGLSAGVNNDN [RTT102] | 3.21 ± 0.086 | 3.53 ± 0.082 | 3.39 ± 0.069 | 3.47 ± 0.084
48 | MLPGSSNGGGKVKPIRG [RPO31] | 3 ± 0.073 | 3.36 ± 0.13 | 3.15 ± 0.076 | 3.07 ± 0.068
49 | SVDMSALKDPQTDADRV [RIP1] | 3.27 ± 0.079 | 3.68 ± 0.23 | 3.2 ± 0.23 | 3.56 ± 0.15
50 | IGAAELNENARELEQIK [SNF12] | 3.18 ± 0.081 | 3.18 ± 0.067 | 2.84 ± 0.12 | 3.33 ± 0.05
51 | SDAQSNLGSNVRNSFPL [REC8] | 3.01 ± 0.07 | 3.12 ± 0.11 | 2.87 ± 0.082 | 3.07 ± 0.055
52 | DITTSIMDNFLERTAIE [RPN1] | 3.21 ± 0.12 | 3.35 ± 0.17 | 3.22 ± 0.086 | 3.28 ± 0.12

Reference: the supplement of paper PMC9732359
